Legend:
[1] = target: Env of all HIV-1 pseudoviruses of the cross-clade 162-pseudovirus panel (n = 162); experiment: cell-based or functional assay
[2] = target: Env of the clade A HIV-1 pseudoviruses of the cross-clade 162-pseudovirus panel (n = 26); experiment: cell-based or functional assay
[3] = target: Env of the clade AG HIV-1 pseudoviruses of the cross-clade 162-pseudovirus panel (n = 10); experiment: cell-based or functional assay
[4] = target: Env of the clade B HIV-1 pseudoviruses of the cross-clade 162-pseudovirus panel (n = 31); experiment: cell-based or functional assay
[5] = target: Env of the clade C HIV-1 pseudoviruses of the cross-clade 162-pseudovirus panel (n = 27); experiment: cell-based or functional assay
[6] = target: Env of the clade D HIV-1 pseudoviruses of the cross-clade 162-pseudovirus panel (n = 25); experiment: cell-based or functional assay
[7] = target: Env of the clade F HIV-1 pseudoviruses of the cross-clade 162-pseudovirus panel (n = 15); experiment: cell-based or functional assay
[8] = target: Env of the clade G HIV-1 pseudoviruses of the cross-clade 162-pseudovirus panel (n = 15); experiment: cell-based or functional assay
[9] = target: HIV-1 92BR020 envelope glycoprotein (Env) (HIV-1); experiment: cell-based or functional assay
[10] = target: HIV-1 92RW020 envelope glycoprotein (Env) (HIV-1); experiment: cell-based or functional assay
[11] = target: HIV-1 93IN905 envelope glycoprotein (Env) (HIV-1); experiment: cell-based or functional assay
[12] = target: HIV-1 93UG077 envelope glycoprotein (Env) (HIV-1); experiment: cell-based or functional assay
[13] = target: HIV-1 94UG103 envelope glycoprotein (Env) (HIV-1); experiment: cell-based or functional assay
[14] = target: HIV-1 APV13 envelope glycoprotein (Env) (HIV-1); experiment: cell-based or functional assay
[15] = target: HIV-1 APV17 envelope glycoprotein (Env) (HIV-1); experiment: cell-based or functional assay
[16] = target: HIV-1 APV6 envelope glycoprotein (Env) (HIV-1); experiment: cell-based or functional assay
[17] = target: HIV-1 Env of isolate 93IN905 (HIV-1); experiment: cell-based or functional assay
[18] = target: HIV-1 Env of isolate JR-CSF (HIV-1) (UniProt P20871); experiment: cell-based or functional assay
[19] = target: HIV-1 Env of isolate MGRM-C-026 (HIV-1); experiment: cell-based or functional assay
[20] = target: HIV-1 JRCSF envelope glycoprotein (Env) (HIV-1) (UniProt P20871); experiment: cell-based or functional assay
[21] = target: HIV-1 JRFL envelope glycoprotein (Env) (HIV-1); experiment: cell-based or functional assay
[22] = target: HIV-1 MGRM-A-010 envelope glycoprotein (Env) (HIV-1); experiment: cell-based or functional assay
[23] = target: HIV-1 MGRM-C-026 envelope glycoprotein (Env) (HIV-1); experiment: cell-based or functional assay
[24] = target: HIV-1 MGRM-C-027 envelope glycoprotein (Env) (HIV-1); experiment: cell-based or functional assay
[25] = target: HIV-1 MGRM-C-028 envelope glycoprotein (Env) (HIV-1); experiment: cell-based or functional assay
[26] = target: HIV-1 NL43 envelope glycoprotein (Env) (HIV-1); experiment: cell-based or functional assay
[27] = target: JR-FL gp120 ΔV1/ΔV2 (HIV-1 (isolate JR-FL)); experiment: ELISA on coated gp120; EC50 by nonlinear regression
[28] = target: JR-FL gp120 ΔV3 (HIV-1 (isolate JR-FL)); experiment: as above
[29] = target: WT JR-FL gp120 (HIV-1 (isolate JR-FL)); experiment: as above
[30] = target: HIV-1 92BR020 envelope glycoprotein (Env) on pseudovirus (HIV-1); experiment: cell-based or functional assay
[31] = target: HIV-1 92RW020 envelope glycoprotein (Env) on pseudovirus (HIV-1); experiment: cell-based or functional assay
[32] = target: HIV-1 92TH021 envelope glycoprotein (Env) on pseudovirus (HIV-1); experiment: cell-based or functional assay
[33] = target: HIV-1 92UG005 envelope glycoprotein (Env) on pseudovirus (HIV-1); experiment: cell-based or functional assay
[34] = target: HIV-1 92UG024 envelope glycoprotein (Env) on pseudovirus (HIV-1); experiment: cell-based or functional assay
[35] = target: HIV-1 93IN905 envelope glycoprotein (Env) on pseudovirus (HIV-1); experiment: cell-based or functional assay
[36] = target: HIV-1 93UG077 envelope glycoprotein (Env) on pseudovirus (HIV-1); experiment: cell-based or functional assay
[37] = target: HIV-1 94UG103 envelope glycoprotein (Env) on pseudovirus (HIV-1); experiment: cell-based or functional assay
[38] = target: HIV-1 APV13 envelope glycoprotein (Env) on pseudovirus (HIV-1); experiment: cell-based or functional assay
[39] = target: HIV-1 APV17 envelope glycoprotein (Env) on pseudovirus (HIV-1); experiment: cell-based or functional assay
[40] = target: HIV-1 APV6 envelope glycoprotein (Env) on pseudovirus (HIV-1); experiment: cell-based or functional assay
[41] = target: HIV-1 CMU02 envelope glycoprotein (Env) on pseudovirus (HIV-1); experiment: cell-based or functional assay
[42] = target: HIV-1 JRCSF envelope glycoprotein (Env) on pseudovirus (HIV-1) (UniProt P20871); experiment: cell-based or functional assay
[43] = target: HIV-1 JRFL envelope glycoprotein (Env) on pseudovirus (HIV-1); experiment: cell-based or functional assay
[44] = target: HIV-1 MGRM-A-010 envelope glycoprotein (Env) on pseudovirus (HIV-1); experiment: cell-based or functional assay
[45] = target: HIV-1 MGRM-AG-005 envelope glycoprotein (Env) on pseudovirus (HIV-1); experiment: cell-based or functional assay
[46] = target: HIV-1 MGRM-C-026 envelope glycoprotein (Env) on pseudovirus (HIV-1); experiment: cell-based or functional assay
[47] = target: HIV-1 MGRM-C-027 envelope glycoprotein (Env) on pseudovirus (HIV-1); experiment: cell-based or functional assay
[48] = target: HIV-1 MGRM-C-028 envelope glycoprotein (Env) on pseudovirus (HIV-1); experiment: cell-based or functional assay
[49] = target: HIV-1 MGRM-D-001 envelope glycoprotein (Env) on pseudovirus (HIV-1); experiment: cell-based or functional assay
[50] = target: HIV-1 MGRM-D-018 envelope glycoprotein (Env) on pseudovirus (HIV-1); experiment: cell-based or functional assay
[51] = target: HIV-1 NL43 envelope glycoprotein (Env) on pseudovirus (HIV-1); experiment: cell-based or functional assay
[52] = target: aMLV envelope protein on pseudovirus (negative control virus); experiment: cell-based or functional assay

B1: PGT-136 (antibody, V domains shown)
VH: QLQLQESGPGLVKPSETLSLTCTVSGGSMRGTDWGENDFHYGWIRQSSAKGLEWIGSIHWRGRTTHYKTSFRSRATLSIDTSNNRFSLTFSFVTAADTAVYYCARHKYHDIFRVVPVAGWFDPWGQGLLVTVSS
VL: EIVMTQSPPTLSVSPGETATLSCRASQNVKNNLAWYQLKPGQAPRLLIFDASSRAGGIPDRFSGSGYGTDFTLTVNSVQSEDFGDYFCQQYEEWPRTFGQGTKVDIK
4.75 µg/mL: Median IC50 against viruses neutralized with an IC50 <50 µg/ml [7]
6: Primary Neutralization Index (B cell culture well 5329 C19) [19]
0.1 µg/mL: EC50 [28]
0.738 µg/mL: IC50 neutralization [10]
0.0135 µg/mL: IC50 neutralization [11]
6.5 ng/mL: IC50 neutralization [23]
0.9: Primary Neutralization Index (B cell culture well 5329 C19) [18]
1.1: Primary Neutralization Index (B cell culture well 5366 P21) [18]
0.05 µg/mL: Median IC50 against viruses neutralized with an IC50 <50 µg/ml [6]
5.6: Primary Neutralization Index (B cell culture well 5329 C19) [17]
29.1 µg/mL: Median IC50 against viruses neutralized with an IC50 <50 µg/ml [3]
0.3 µg/mL: EC50 [27]
18.9 µg/mL: Median IC50 against viruses neutralized with an IC50 <50 µg/ml [8]
5.5: Primary Neutralization Index (B cell culture well 5366 P21) [17]
0.2 µg/mL: EC50 [29]
7.81 µg/mL: Median IC50 against viruses neutralized with an IC50 <50 µg/ml [1]
6.2: Primary Neutralization Index (B cell culture well 5366 P21) [19]
> 10 µg/mL: IC50 neutralization [9] | IC50 neutralization [12] | IC50 neutralization [13] | IC50 neutralization [14] | IC50 neutralization [15] | IC50 neutralization [16] | IC50 neutralization [20] | IC50 neutralization [21] | IC50 neutralization [22] | IC50 neutralization [24] | IC50 neutralization [25] | IC50 neutralization [26]
13.2 µg/mL: Median IC50 against viruses neutralized with an IC50 <50 µg/ml [4]
7.52 µg/mL: Median IC50 against viruses neutralized with an IC50 <50 µg/ml [5]
2.34 µg/mL: Median IC50 against viruses neutralized with an IC50 <50 µg/ml [2]

B2: PGT-136 (5329_C19; 5366_P21) human monoclonal anti-HIV antibody (antibody, V domains shown)
VH: QLQLQESGPGLVKPSETLSLTCTVSGGSMRGTDWGENDFHYGWIRQSSAKGLEWIGSIHWRGRTTHYKTSFRSRATLSIDTSNNRFSLTFSFVTAADTAVYYCARHKYHDIFRVVPVAGWFDPWGQGLLVTVSS
VL: EIVMTQSPPTLSVSPGETATLSCRASQNVKNNLAWYQLKPGQAPRLLIFDASSRAGGIPDRFSGSGYGTDFTLTVNSVQSEDFGDYFCQQYEEWPRTFGQGTKVDIK
0.159 µg/mL: neutralization IC95 [46]
0.738 µg/mL: neutralization IC50 [31]
0.0285 µg/mL: neutralization IC80 [46]
0.0135 µg/mL: neutralization IC50 [35]
0.379 µg/mL: neutralization IC95 [35]
6.5 ng/mL: neutralization IC50 [46]
0.619 µg/mL: neutralization IC80 [34]
0.0687 µg/mL: neutralization IC90 [46]
1.96 µg/mL: neutralization IC90 [34]
5.97 µg/mL: neutralization IC95 [34]
> 10 µg/mL: neutralization IC50 [30] | neutralization IC80 [30] | neutralization IC90 [30] | neutralization IC95 [30] | neutralization IC80 [31] | neutralization IC90 [31] | neutralization IC95 [31] | neutralization IC50 [32] | neutralization IC80 [32] | neutralization IC90 [32] | neutralization IC95 [32] | neutralization IC50 [33] | neutralization IC80 [33] | neutralization IC90 [33] | neutralization IC95 [33] | neutralization IC50 [36] | neutralization IC80 [36] | neutralization IC90 [36] | neutralization IC95 [36] | neutralization IC50 [37] | neutralization IC80 [37] | neutralization IC90 [37] | neutralization IC95 [37] | neutralization IC50 [38] | neutralization IC80 [38] | neutralization IC90 [38] | neutralization IC95 [38] | neutralization IC50 [39] | neutralization IC80 [39] | neutralization IC90 [39] | neutralization IC95 [39] | neutralization IC50 [40] | neutralization IC80 [40] | neutralization IC90 [40] | neutralization IC95 [40] | neutralization IC50 [41] | neutralization IC80 [41] | neutralization IC90 [41] | neutralization IC95 [41] | neutralization IC50 [42] | neutralization IC80 [42] | neutralization IC90 [42] | neutralization IC95 [42] | neutralization IC50 [43] | neutralization IC80 [43] | neutralization IC90 [43] | neutralization IC95 [43] | neutralization IC50 [44] | neutralization IC80 [44] | neutralization IC90 [44] | neutralization IC95 [44] | neutralization IC50 [45] | neutralization IC80 [45] | neutralization IC90 [45] | neutralization IC95 [45] | neutralization IC50 [47] | neutralization IC80 [47] | neutralization IC90 [47] | neutralization IC95 [47] | neutralization IC50 [48] | neutralization IC80 [48] | neutralization IC90 [48] | neutralization IC95 [48] | neutralization IC50 [49] | neutralization IC80 [49] | neutralization IC90 [49] | neutralization IC95 [49] | neutralization IC50 [50] | neutralization IC80 [50] | neutralization IC90 [50] | neutralization IC95 [50] | neutralization IC50 [51] | neutralization IC80 [51] | neutralization IC90 [51] | neutralization IC95 [51] | neutralization IC50 [52] | neutralization IC80 [52] | neutralization IC90 [52] | neutralization IC95 [52]
0.156 µg/mL: neutralization IC90 [35]
0.0915 µg/mL: neutralization IC50 [34]
0.0623 µg/mL: neutralization IC80 [35]

B3: PGT-137 (antibody, V domains shown)
VH: EVHLEESGPGLVRPSETLSLTCTASGGSIRGGEWGDSDYHWGWVRHSPEKGLEWIGSIHWRGTTHYNAPFRGRGRLSIDLSRNQFSLRLTSVTAEDTAVYYCVKHKYHDIVMVVPIAGWFDPWGQGLQVTVSS
VL: EIMMTQSPAILSVSPGDRATLSCRASQSVKNNLAWYQKRPGQAPRLLIFDTSSRASGIPARFSGGGSGTEFTLTVNSMQSEDFATYYCQQYEEWPRTFGQGTKVEIK
6.3 µg/mL: Median IC50 against viruses neutralized with an IC50 <50 µg/ml [6]
3.3: Primary Neutralization Index (B cell culture well 5345 I1) [17]
0.2 µg/mL: EC50 [27]
0.72 µg/mL: Median IC50 against viruses neutralized with an IC50 <50 µg/ml [2]
0.23 µg/mL: Median IC50 against viruses neutralized with an IC50 <50 µg/ml [5] | Median IC50 against viruses neutralized with an IC50 <50 µg/ml [8]
1.1: Primary Neutralization Index (B cell culture well 5345 I1) [18]
11.3: Primary Neutralization Index (B cell culture well 5345 I1) [19]
6.23 µg/mL: Median IC50 against viruses neutralized with an IC50 <50 µg/ml [7]
0.1 µg/mL: EC50 [28] | EC50 [29]
8.55 µg/mL: Median IC50 against viruses neutralized with an IC50 <50 µg/ml [4]
